Test [1] deals with α1-antitrypsin reactive loop mutant P6 (L353D) on the C232S background (UniProt P01009). Put plainly: FRET or BRET; heat-induced polymerization at 50°C; 0.1 mg/ml protein in 10 mM Na2HPO4/NaH2PO4, 0.1 M NaCl, 0.1% PEG8K, pH 7.4; 2-8 μM ATTO-550-Ni-NTA and ATTO-647N-Ni-NTA on the His tag; apparent rate, corrected to zero dye; monomer to polymer.
The target is the same in test [2]. Put plainly: FRET or BRET; heat-induced polymerization at 60°C; 0.1 mg/ml protein in 10 mM Na2HPO4/NaH2PO4, 0.1 M NaCl, 0.1% PEG8K, pH 7.4; 2-8 μM ATTO-550-Ni-NTA and ATTO-647N-Ni-NTA on the His tag; apparent rate, corrected to zero dye; monomer to polymer.
Test [3] has the same target. Put plainly: FRET or BRET; heat-induced polymerization at 55°C; 0.1 mg/ml protein in 10 mM Na2HPO4/NaH2PO4, 0.1 M NaCl, 0.1% PEG8K, pH 7.4; 2-8 μM ATTO-550-Ni-NTA and ATTO-647N-Ni-NTA on the His tag; apparent rate, corrected to zero dye; monomer to polymer.
For test [4], the target named is α1-antitrypsin reactive loop mutant P10P8 (G349D, M351D) on the C232S background (UniProt P01009). Put plainly: FRET or BRET; heat-induced polymerization at 50°C; 0.1 mg/ml protein in 10 mM Na2HPO4/NaH2PO4, 0.1 M NaCl, 0.1% PEG8K, pH 7.4; 2-8 μM ATTO-550-Ni-NTA and ATTO-647N-Ni-NTA on the His tag; apparent rate, corrected to zero dye; monomer to polymer.
Test [5] shares this target. Put plainly: FRET or BRET; heat-induced polymerization at 60°C; 0.1 mg/ml protein in 10 mM Na2HPO4/NaH2PO4, 0.1 M NaCl, 0.1% PEG8K, pH 7.4; 2-8 μM ATTO-550-Ni-NTA and ATTO-647N-Ni-NTA on the His tag; apparent rate, corrected to zero dye; monomer to polymer.
Test [6] has the same target. Put plainly: FRET or BRET; heat-induced polymerization at 55°C; 0.1 mg/ml protein in 10 mM Na2HPO4/NaH2PO4, 0.1 M NaCl, 0.1% PEG8K, pH 7.4; 2-8 μM ATTO-550-Ni-NTA and ATTO-647N-Ni-NTA on the His tag; apparent rate, corrected to zero dye; monomer to polymer.
For test [7], the target named is bovine α-chymotrypsin (bovine). Put plainly: enzyme inhibition progress curves; pseudo-first-order conditions, 4 h at 25°C, 5-600 nM inhibitor, 200 μM substrate, 0.5 nM bovine α-chymotrypsin.
Test [8] addresses bovine α-chymotrypsin (bovine).
The target of test [9] is recombinant α1-antitrypsin, M allele with the C232S mutation (AT_(C232S)) (UniProt P01009). Put plainly: FRET or BRET; heat-induced polymerization at 50°C; 0.1 mg/ml protein in 10 mM Na2HPO4/NaH2PO4, 0.1 M NaCl, 0.1% PEG8K, pH 7.4; 2-8 μM ATTO-550-Ni-NTA and ATTO-647N-Ni-NTA on the His tag; apparent rate, corrected to zero dye; monomer to polymer.
Test [10] shares this target. Put plainly: FRET or BRET; heat-induced polymerization at 60°C; 0.1 mg/ml protein in 10 mM Na2HPO4/NaH2PO4, 0.1 M NaCl, 0.1% PEG8K, pH 7.4; 2-8 μM ATTO-550-Ni-NTA and ATTO-647N-Ni-NTA on the His tag; apparent rate, corrected to zero dye; monomer to polymer.
Test [11] shares this target. Put plainly: FRET or BRET; heat-induced polymerization at 55°C; 0.1 mg/ml protein in 10 mM Na2HPO4/NaH2PO4, 0.1 M NaCl, 0.1% PEG8K, pH 7.4; 2-8 μM ATTO-550-Ni-NTA and ATTO-647N-Ni-NTA on the His tag; apparent rate, corrected to zero dye; monomer to polymer.
Test [12] concerns the target α1-antitrypsin reactive loop mutant P6P4 (L353D, A355D) on the C232S background (UniProt P01009). Put plainly: FRET or BRET; heat-induced polymerization at 50°C; 0.1 mg/ml protein in 10 mM Na2HPO4/NaH2PO4, 0.1 M NaCl, 0.1% PEG8K, pH 7.4; 2-8 μM ATTO-550-Ni-NTA and ATTO-647N-Ni-NTA on the His tag; apparent rate, corrected to zero dye; monomer to polymer.
The target is the same in test [13]. Put plainly: FRET or BRET; heat-induced polymerization at 60°C; 0.1 mg/ml protein in 10 mM Na2HPO4/NaH2PO4, 0.1 M NaCl, 0.1% PEG8K, pH 7.4; 2-8 μM ATTO-550-Ni-NTA and ATTO-647N-Ni-NTA on the His tag; apparent rate, corrected to zero dye; monomer to polymer.
Test [14] has the same target. Put plainly: FRET or BRET; heat-induced polymerization at 55°C; 0.1 mg/ml protein in 10 mM Na2HPO4/NaH2PO4, 0.1 M NaCl, 0.1% PEG8K, pH 7.4; 2-8 μM ATTO-550-Ni-NTA and ATTO-647N-Ni-NTA on the His tag; apparent rate, corrected to zero dye; monomer to polymer.
Test [15] has as its target α1-antitrypsin reactive loop mutant P2P1′ (P357D, S359D) on the C232S background (UniProt P01009). Put plainly: FRET or BRET; heat-induced polymerization at 50°C; 0.1 mg/ml protein in 10 mM Na2HPO4/NaH2PO4, 0.1 M NaCl, 0.1% PEG8K, pH 7.4; 2-8 μM ATTO-550-Ni-NTA and ATTO-647N-Ni-NTA on the His tag; apparent rate, corrected to zero dye; monomer to polymer.
For test [16] the target is unchanged. Put plainly: FRET or BRET; heat-induced polymerization at 60°C; 0.1 mg/ml protein in 10 mM Na2HPO4/NaH2PO4, 0.1 M NaCl, 0.1% PEG8K, pH 7.4; 2-8 μM ATTO-550-Ni-NTA and ATTO-647N-Ni-NTA on the His tag; apparent rate, corrected to zero dye; monomer to polymer.
Test [17] shares this target. Put plainly: FRET or BRET; heat-induced polymerization at 55°C; 0.1 mg/ml protein in 10 mM Na2HPO4/NaH2PO4, 0.1 M NaCl, 0.1% PEG8K, pH 7.4; 2-8 μM ATTO-550-Ni-NTA and ATTO-647N-Ni-NTA on the His tag; apparent rate, corrected to zero dye; monomer to polymer.
The target in test [18] is α1-antitrypsin reactive loop mutant P4 (A355D) on the C232S background (UniProt P01009). Put plainly: FRET or BRET; heat-induced polymerization at 50°C; 0.1 mg/ml protein in 10 mM Na2HPO4/NaH2PO4, 0.1 M NaCl, 0.1% PEG8K, pH 7.4; 2-8 μM ATTO-550-Ni-NTA and ATTO-647N-Ni-NTA on the His tag; apparent rate, corrected to zero dye; monomer to polymer.
For test [19] the target is unchanged. Put plainly: FRET or BRET; heat-induced polymerization at 60°C; 0.1 mg/ml protein in 10 mM Na2HPO4/NaH2PO4, 0.1 M NaCl, 0.1% PEG8K, pH 7.4; 2-8 μM ATTO-550-Ni-NTA and ATTO-647N-Ni-NTA on the His tag; apparent rate, corrected to zero dye; monomer to polymer.
Test [20] shares this target. Put plainly: FRET or BRET; heat-induced polymerization at 55°C; 0.1 mg/ml protein in 10 mM Na2HPO4/NaH2PO4, 0.1 M NaCl, 0.1% PEG8K, pH 7.4; 2-8 μM ATTO-550-Ni-NTA and ATTO-647N-Ni-NTA on the His tag; apparent rate, corrected to zero dye; monomer to polymer.

Take “α1-antitrypsin reactive loop mutant P6 (L353D) on the C232S background (from UniProt P01009 26-418) (natural protein)”: the figures for the k (app,fr) (apparent rate of polymerization) in test [1], in test [2] and in test [3] were 3.7e-05 s⁻¹, 0.01 s⁻¹ and 0.0007 s⁻¹, respectively.

Consider “α1-antitrypsin reactive loop mutant P10P8 (G349D, M351D) on the C232S background (from UniProt P01009 26-418) (natural protein)”, for which the k (app,fr) (apparent rate of polymerization) was 7.2e-05 s⁻¹ in test [4], 0.0028 s⁻¹ in test [5] and 0.00066 s⁻¹ in test [6]. In test [7], this substance came in with a kass•SI of 570000. Further, the kon in [7] came out at 120000 M⁻¹ s⁻¹. The SI (stoichiometry of inhibition): residual activity of 0.5 μM bovine α-chymotrypsin after 30 min with inhibitor in [8] amounted to 4.56.

As for “recombinant α1-antitrypsin, M allele with the C232S mutation (AT_(C232S)) (from UniProt P01009 26-418) (natural protein)”, the figures for the k (app,fr) (apparent rate of polymerization) in [9], in test [10] and in test [11] were 0.00021 s⁻¹, 0.01 s⁻¹ and 0.0016 s⁻¹, respectively. In [7], the kass•SI turned out to be 1.5e+06. Also, the kon in [7] amounted to 1.5e+06 M⁻¹ s⁻¹. This substance also came in with an SI (stoichiometry of inhibition): residual activity of 0.5 μM bovine α-chymotrypsin after 30 min with inhibitor in [8] of 1.1.

As to “α1-antitrypsin reactive loop mutant P6P4 (L353D, A355D) on the C232S background (from UniProt P01009 26-418) (natural protein)”, the k (app,fr) (apparent rate of polymerization) in test [12] was 9.8e-06 s⁻¹; in test [13], 0.0055 s⁻¹; in [14], 0.00044 s⁻¹. The same substance came in with an SI (stoichiometry of inhibition): residual activity of 0.5 μM bovine α-chymotrypsin after 30 min with inhibitor in test [8] of 89.

As to “α1-antitrypsin reactive loop mutant P2P1′ (P357D, S359D) on the C232S background (from UniProt P01009 26-418) (natural protein)”, the values for the k (app,fr) (apparent rate of polymerization) in test [15], in test [16] and in [17] were 0.00022 s⁻¹, 0.012 s⁻¹ and 0.0017 s⁻¹, respectively. The same substance yielded an SI (stoichiometry of inhibition): residual activity of 0.5 μM bovine α-chymotrypsin after 30 min with inhibitor in test [8] of 100.

With “α1-antitrypsin reactive loop mutant P4 (A355D) on the C232S background (from UniProt P01009 26-418) (natural protein)”, the k (app,fr) (apparent rate of polymerization) in test [18] worked out at 0.00011 s⁻¹; in test [19], 0.078 s⁻¹; in [20], 0.0011 s⁻¹.

Values taken from paper PMC3691886.
